{
  "source": "patent US20200087372A1",
  "about": "(ZEALAND PHARMA A S, published 2020)",
  "binders": {"B1": {"name": "Compound 1: H-H-Aib-QGTFTSDYSKYLDERAAKDFIEWLE-K([17-Carboxy-heptadecanoyl]-isoGlu-GSGSGG)-A-NH2 (peptide)", "peptide": "HAQGTFTSDYSKYLDERAAKDFIEWLEKA", "modifications": "Aib (alpha-aminoisobutyric acid) at position 2; Lys 28 conjugated via its epsilon amino group to [17-Carboxy-heptadecanoyl]-isoGlu-GSGSGG; C-terminal amide (NH2); free N-terminus (R1 = H)"}},
  "assay_in_all_cases": "cell-based or functional assay",
  "key": {"[1]": {"biological_target": "T1, endogenous GLP-1 receptor of a murine insulinoma cell line (murine, UniProt O35659 22-463)", "T1 sequence (looked up)": "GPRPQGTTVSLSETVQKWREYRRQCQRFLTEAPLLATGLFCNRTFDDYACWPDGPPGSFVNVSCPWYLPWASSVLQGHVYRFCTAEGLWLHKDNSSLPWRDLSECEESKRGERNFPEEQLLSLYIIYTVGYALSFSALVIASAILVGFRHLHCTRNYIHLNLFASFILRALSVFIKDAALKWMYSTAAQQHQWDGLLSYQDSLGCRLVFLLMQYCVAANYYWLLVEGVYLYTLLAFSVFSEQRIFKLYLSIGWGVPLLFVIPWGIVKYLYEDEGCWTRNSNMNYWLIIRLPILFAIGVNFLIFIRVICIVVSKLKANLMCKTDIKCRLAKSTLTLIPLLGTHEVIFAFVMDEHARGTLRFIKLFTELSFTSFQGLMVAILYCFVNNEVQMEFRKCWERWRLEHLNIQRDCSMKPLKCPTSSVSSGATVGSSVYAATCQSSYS"}, "[2]": {"biological_target": "endogenous glucagon receptor of primary rat hepatocytes (rat, UniProt P30082 27-485)", "sequence (P30082 27-485)": "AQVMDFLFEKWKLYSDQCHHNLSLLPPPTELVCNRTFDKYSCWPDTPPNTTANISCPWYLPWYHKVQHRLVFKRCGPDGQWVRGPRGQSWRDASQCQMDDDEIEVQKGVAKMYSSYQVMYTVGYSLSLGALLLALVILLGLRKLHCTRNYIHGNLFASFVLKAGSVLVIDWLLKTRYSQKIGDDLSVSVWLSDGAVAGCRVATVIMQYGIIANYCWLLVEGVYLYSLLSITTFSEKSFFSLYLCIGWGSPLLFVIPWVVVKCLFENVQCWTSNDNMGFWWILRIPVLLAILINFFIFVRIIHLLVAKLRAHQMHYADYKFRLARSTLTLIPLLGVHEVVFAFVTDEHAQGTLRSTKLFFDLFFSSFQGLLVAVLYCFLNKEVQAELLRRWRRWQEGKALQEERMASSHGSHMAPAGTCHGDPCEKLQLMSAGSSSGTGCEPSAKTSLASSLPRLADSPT"}, "[3]": {"biological_target": "human glucagon-like peptide 1 receptor (GLP-1R) (human, UniProt P43220 24-463)"}, "[4]": {"biological_target": "human glucagon receptor (Glucagon-R) (human, UniProt P47871 26-477)", "sequence (P47871 26-477)": "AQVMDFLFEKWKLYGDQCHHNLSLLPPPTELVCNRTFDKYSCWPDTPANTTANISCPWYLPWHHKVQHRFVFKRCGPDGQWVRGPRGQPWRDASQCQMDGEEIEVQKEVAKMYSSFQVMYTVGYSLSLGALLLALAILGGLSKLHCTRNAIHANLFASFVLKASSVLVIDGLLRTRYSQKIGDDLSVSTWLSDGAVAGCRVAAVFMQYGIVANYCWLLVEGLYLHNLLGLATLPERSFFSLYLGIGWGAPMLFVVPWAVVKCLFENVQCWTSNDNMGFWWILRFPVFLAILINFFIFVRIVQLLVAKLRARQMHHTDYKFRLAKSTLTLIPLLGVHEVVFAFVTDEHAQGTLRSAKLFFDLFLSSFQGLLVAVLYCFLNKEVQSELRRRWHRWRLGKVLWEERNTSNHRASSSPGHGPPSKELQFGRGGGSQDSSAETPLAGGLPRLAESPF"}},
  "data": [
    {"binder": "B1", "values": [
      {"measurement": "EC50 [nM] (cAMP in murine insulinoma cells)", "setting": "[1]", "result": 0.54, "unit": "nM"},
      {"measurement": "EC50 [nM] (inhibition of glycogen synthesis rate in primary rat hepatocytes)", "setting": "[2]", "result": 5.6, "unit": "nM"},
      {"measurement": "EC50 hGLP-1R CHO-K1 [nM] (cAMP, AlphaScreen)", "setting": "[3]", "result": 0.48, "unit": "nM"},
      {"measurement": "EC50 hGCGR CHO-K1 [nM] (cAMP, AlphaScreen)", "setting": "[4]", "result": 3.6, "unit": "nM"}
    ]}
  ]
}
